Laboratory results taken from patent US20230064978A1, “CYCLIC PEPTIDE RECEPTOR LANTHIONINE SYNTHETASE C-LIKE PROTEIN (LANCL) AND USES THEREOF” (LATERAL IP PTY LTD, priority 2019, published 2023).
Bridges are numbered along the chain shown (N, C = ends). Where no end group is shown, it is not given here.

Assays:
[1] = biological target: T1, human recombinant LANCL1 (Homo sapiens, UniProt O43813); assay: In-gel fluorescence: photolabelling of recombinant LANCL1 with PAL probes, with or without excess competitor; type: binding
T1 construct: purchased ABCAM ab181923; host or cells: E. coli
T1 sequence (O43813 with tags, fused parts or gaps): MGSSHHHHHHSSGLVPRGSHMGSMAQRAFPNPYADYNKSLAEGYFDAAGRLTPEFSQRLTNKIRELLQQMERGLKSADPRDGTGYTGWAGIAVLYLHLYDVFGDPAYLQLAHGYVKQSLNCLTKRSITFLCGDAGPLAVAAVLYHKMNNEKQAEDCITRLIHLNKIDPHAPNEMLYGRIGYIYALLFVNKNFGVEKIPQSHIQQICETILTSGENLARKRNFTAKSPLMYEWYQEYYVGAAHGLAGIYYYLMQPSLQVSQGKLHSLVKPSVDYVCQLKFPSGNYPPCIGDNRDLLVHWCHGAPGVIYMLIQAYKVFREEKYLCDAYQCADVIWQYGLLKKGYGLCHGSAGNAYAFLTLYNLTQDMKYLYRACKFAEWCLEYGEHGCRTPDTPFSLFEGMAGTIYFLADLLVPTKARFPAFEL
Description: The in-gel fluorescence protocol can be briefly described as follows:
1. LANCL1 Labelling, Assay on 96 Well Plate, Volume of the Reaction 40 μl in PBS
3 μg/well of human recombinant LANCL1 (ABCAM catalog no. ab181923, 1 mg/ml; expressed in E. Coli and incorporating an N-terminal 23 amino acid hexaHis tag; UniProtKB/Swiss-Prot Accession no: O43813);
• Vehicle DMSO • ±LAT8881 (a cyclic peptide fragment of human growth hormone; SEQ ID NO:1) • SEQ ID NO:1) as competitor @ 25, 50, 100 or 200 μM, pre-incubation 10 min, 4 μl of a stock solution 10-fold concentrated • ±LAT9991-PAL, LAT7771-PAL or LAT9993-PAL probes @ 1 μM, incubation 30 min at room temperature on a plate agitator (protected from light), 4 μl of a stock solution @10 μM
• Irradiation @ 365 nm 20 min (4° C., on a support containing ice) Transfer 40 μl in a clean Eppendorf tube
• Reduction: DTT 10 mM, 30 min @ 56° C. • Alkylation: Iodoacetamide 30 mM, 45 min @ RT Click-iT AzideTamra of 60 μL samples
• Acetone Precipitation −20° C. ON • Dry pellet resuspended in 30 μL 1% SDS in 50 mM Tris-HCl pH 7.5 • Photolabeled LANCL1 was tagged with tetramethylrhodamine (TAMRA) azide @100 μM TAMRA azide by copper click chemistry using the Click-iT Protein Reaction Buffer Kit (ThermoFisher Scientific) during 30 minutes • Precipitation using the chloroform-methanol method, pellet was air-dried for 10 min at room temperature, resuspended in 30 μL SDS loading buffer (Bio Rad's XT Sample Buffer containing 2.5% v/v 2-mercaptoethanol) and heated (60° C., 30 min)
• SDS-PAGE (4-15% Criterion™ TGX Stain-Free™ Protein Gel, Bio Rad) • Analyzed by in-gel fluorescence scanning using a ChemiDoc™ MP Imaging System (Bio Rad) with a green LED light as an excitation source and a BP600/20 nm emission filter

[2] = biological target: LANCL1 (Rattus norvegicus, UniProt Q9QX69); assay: Streptavidin pull-down of probe-labelled proteins from spinal cord microsomal fraction, anti-LANCL1 Western Blot; type: binding; set-up: from tissue; host or cells: rat spinal cord, microsomal fraction
LANCL1, sequence (Q9QX69 whole entry): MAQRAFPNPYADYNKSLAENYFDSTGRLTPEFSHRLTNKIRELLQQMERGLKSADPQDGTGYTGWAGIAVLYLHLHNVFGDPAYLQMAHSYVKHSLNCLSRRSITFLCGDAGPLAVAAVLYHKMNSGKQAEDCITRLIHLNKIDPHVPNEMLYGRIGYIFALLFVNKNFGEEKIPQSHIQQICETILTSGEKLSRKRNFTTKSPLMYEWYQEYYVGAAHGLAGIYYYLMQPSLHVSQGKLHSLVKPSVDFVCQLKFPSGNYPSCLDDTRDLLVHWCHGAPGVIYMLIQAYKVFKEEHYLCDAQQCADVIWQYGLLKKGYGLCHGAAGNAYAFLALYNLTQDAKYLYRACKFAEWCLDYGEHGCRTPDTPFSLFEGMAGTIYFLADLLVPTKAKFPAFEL
Description: To confirm the LANCL1 enrichment observed by mass spectrometry sequencing pull-down experiments, commercial antibodies to LANCL1 (polyclonal rabbit anti-LANCL1, PA557107 from Invitrogen) were used to identify the presence of the LANCL1 in nerve microsome preparations. Briefly, rat spinal cord were lysed in lysate buffer, (sodium phosphate buffer 5 mM pH7.4, sucrose 0.32M+protease inhibitors (cOmplete ULTRA tablets from Roche, mini easy pack, 05892970001)). All the following steps were done on ice. The samples were homogenized, and the total extract centrifuged at 10000 g during 20 minutes. The supernatant was kept and the lysis step was repeated on the pellet adding 10 ml more of lysis buffer, followed by a new centrifugation step. This step extraction was done two times as described and the supernatants were pooled before centrifugation at 105000 g using the Ti50.2 Beckman rotor for 90 minutes at 4° C. The pellet was kept as a microsomal fraction and stored at −80° C. […] Images acquired with the ChemiDoc™ MP Imaging System were analyzed with Imagelab software (Bio-Rad).

Substance | Inhibition of LAT7771-PAL binding to recombinant LANCL1 by excess competitor ([1]; probe LAT7771-PAL, excess LAT8881) | Inhibition of LAT9991-PAL binding to recombinant LANCL1 by excess competitor ([1]; probe LAT9991-PAL, excess unlabelled competitor) | Inhibition of LAT9993S-PAL binding to recombinant LANCL1 by excess competitor ([1]; probe LAT9993S-PAL, excess LAT8881) | LANCL1 level in LAT9991-PAL pull-down eluate in presence of excess competitor ([2]; 50 μM competitor, 10-fold excess over LAT9991-PAL) | Binding of PAL probe to recombinant LANCL1 ([1]; in-gel fluorescence after UV (365 nm) cross-linking) | Detection of LANCL1 in eluates of probe pull-down (Western Blot) ([2]; 5 μM probe, rat spinal cord microsomal fraction)
YLRIVQCRSVEGSCGF [LAT8881, a cyclic peptide fragment of human growth hormone] | inhibited | inhibited | inhibited | reduced | – | –
LAT9991-PAL: cyclic peptide of SEQ ID NO:12 (LAT9991) conjugated to the PAL (Photo-Activated Labelling) grouping (CRSVEGSCG; disulfide 1-8 (inferred); also: PAL group on N-terminal Cys-Arg part) | – | – | – | – | bound to recombinant LANCL1 | could only be detected in the eluates of LAT9991-PAL samples as a specifically bound protein
